Results as given in doi:10.1101/2025.10.01.679551, “Mechanism of phosphoinositide regulation of lysosomal pH via inhibition of CLC-7” (bioRxiv, 2025).
Each block holds one binder with its values, some of them ahead of it.

B1: human ClC-7 (wild type), C-terminal 6His-tag (natural protein)
chain: MANVSKKVSWSGRDRDDEEAAPLLRRTARPGGGTPLLNGAGPGAARQSPRSALFRVGHMSSVELDDELLDPDMDPPHPFPKEIPHNEKLLSLKYESLDYDNSENQLFLEEERRINHTAFRTVEIKRWVICALIGILTGLVACFIDIVVENLAGLKYRVIKGNIDKFTEKGGLSFSLLLWATLNAAFVLVGSVIVAFIEPVAAGSGIPQIKCFLNGVKIPHVVRLKTLVIKVSGVILSVVGGLAVGKEGPMIHSGSVIAAGISQGRSTSLKRDFKIFEYFRRDTEKRDFVSAGAAAGVSAAFGAPVGGVLFSLEEGASFWNQFLTWRIFFASMISTFTLNFVLSIYHGNMWDLSSPGLINFGRFDSEKMAYTIHEIPVFIAMGVVGGVLGAVFNALNYWLTMFRIRYIHRPCLQVIEAVLVAAVTATVAFVLIYSSRDCQPLQGGSMSYPLQLFCADGEYNSMAAAFFNTPEKSVVSLFHDPPGSYNPLTLGLFTLVYFFLACWTYGLTVSAGVFIPSLLIGAAWGRLFGISLSYLTGAAIWADPGKYALMGAAAQLGGIVRMTLSLTVIMMEATSNVTYGFPIMLVLMTAKIVGDVFIEGLYDMHIQLQSVPFLHWEAPVTSHSLTAREVMSTPVTCLRRREKVGVIVDVLSDTASNHNGFPVVEHADDTQPARLQGLILRSQLIVLLKHKVFVERSNLGLVQRRLRLKDFRDAYPRFPPIQSIHVSQDERECTMDLSEFMNPSPYTVPQEASLPRVFKLFRALGLRHLVVVDNRNQVVGLVTRKDLARYRLGKRGLEELSLAQT
notes: ClC-7 Cl-/H+ antiporter, Homo sapiens, synthesised gene in pLexM; Homodimer; each subunit carries one Ostm1; The cytoplasmic domain is not resolved in the structure without lipid (9G6D); also called wtCLC7; WT-CLC7; source: HEK293F (Freestyle 293F), co-transfected with OSTM1-Flag
B3: human ClC-7 Y715C, C-terminal 6His-tag (natural protein)
chain: MANVSKKVSWSGRDRDDEEAAPLLRRTARPGGGTPLLNGAGPGAARQSPRSALFRVGHMSSVELDDELLDPDMDPPHPFPKEIPHNEKLLSLKYESLDYDNSENQLFLEEERRINHTAFRTVEIKRWVICALIGILTGLVACFIDIVVENLAGLKYRVIKGNIDKFTEKGGLSFSLLLWATLNAAFVLVGSVIVAFIEPVAAGSGIPQIKCFLNGVKIPHVVRLKTLVIKVSGVILSVVGGLAVGKEGPMIHSGSVIAAGISQGRSTSLKRDFKIFEYFRRDTEKRDFVSAGAAAGVSAAFGAPVGGVLFSLEEGASFWNQFLTWRIFFASMISTFTLNFVLSIYHGNMWDLSSPGLINFGRFDSEKMAYTIHEIPVFIAMGVVGGVLGAVFNALNYWLTMFRIRYIHRPCLQVIEAVLVAAVTATVAFVLIYSSRDCQPLQGGSMSYPLQLFCADGEYNSMAAAFFNTPEKSVVSLFHDPPGSYNPLTLGLFTLVYFFLACWTYGLTVSAGVFIPSLLIGAAWGRLFGISLSYLTGAAIWADPGKYALMGAAAQLGGIVRMTLSLTVIMMEATSNVTYGFPIMLVLMTAKIVGDVFIEGLYDMHIQLQSVPFLHWEAPVTSHSLTAREVMSTPVTCLRRREKVGVIVDVLSDTASNHNGFPVVEHADDTQPARLQGLILRSQLIVLLKHKVFVERSNLGLVQRRLRLKDFRDACPRFPPIQSIHVSQDERECTMDLSEFMNPSPYTVPQEASLPRVFKLFRALGLRHLVVVDNRNQVVGLVTRKDLARYRLGKRGLEELSLAQT
notes: ClC-7 Cl-/H+ antiporter, Homo sapiens, synthesised gene in pLexM with the patient gain-of-function mutation Y715C; Y715C is a mutation found in human patients; The cytoplasmic domain is not resolved in 9G6E; also called CLC7Y715C-His; source: HEK293F (Freestyle 293F), co-transfected with OSTM1-Flag

Experiments:
[1] = molecular target: the molecule itself; test: cryo-EM structure; ClC-7/Ostm1 complex co-expressed in HEK293F, purified by FLAG affinity and SEC in LMNG/CHS with lipid bought as PI(3,5)P2 added during purification; supplemented with 0.1 % LMNG and 2.5 mM ATP; C2 symmetry
[2] = molecular target: B1; test: cryo-EM structure; ClC-7/Ostm1 complex co-expressed in HEK293F, purified by FLAG affinity and SEC in LMNG/CHS, no lipid added (apo); C2 symmetry; conditions: both partners purified
[3] = molecular target: B3; test: as above; conditions: both partners purified
[4] = molecular target: the molecule itself; test: as above

Binder: B1
- binding result [1]: binds

- binding result [2]: binds
- binding result [3]: binds
B2: human Ostm1, C-terminal Flag-tag (natural protein)
chain: ALPFGSSPHRVFHDLLSEQQLLEVEDLSLSLLQGGGLGPLSLPPDLPDLDPECRELLLDFANSSAELTGCLVRSARPVRLCQTCYPLFQQVVSKMDNISRAAGNTSESQSCARSLLMADRMQIVVILSEFFNTTWQEANCANCLTNNSEELSNSTVYFLNLFNHTLTCFEHNLQGNAHSLLQTKNYSEVCKNCREAYKTLSSLYSEMQKMNELENKAEPGTHLCIDVEDAMNITRKLWSRTFNCSVPCSDTVPVIAVSVFILFLPVVFYLSSFLHSEQKKRKLILPKRLKSSTSFANIQENSN
notes: Ostm1, Homo sapiens, synthesised gene in pLexM; Two copies in the ClC-7/Ostm1 complex, one for each ClC-7 subunit; also called OSTM1-Flag; source: HEK293F (Freestyle 293F), co-transfected with CLC7-His or CLC7Y715C-His; not shown: Flag, C-terminal, kept

Binder: B3
- binding result [4]: binds
